Measured values from US20230322953A1 (HARBOUR BIOMED SHANGHAI, published 2023).

T1: human BCMA (human, UniProt Q02223 1-184)
T1 construct: whole, on cells; also called hBCMA; TNFRSF17
T1 sequence (looked up): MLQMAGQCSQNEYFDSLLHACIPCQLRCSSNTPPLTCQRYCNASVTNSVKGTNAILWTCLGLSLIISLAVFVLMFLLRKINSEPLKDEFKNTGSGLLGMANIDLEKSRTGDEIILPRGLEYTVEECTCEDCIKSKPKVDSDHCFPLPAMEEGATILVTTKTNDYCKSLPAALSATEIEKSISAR


Each binder was assayed against T1, human BCMA (assay: FACS on NCI-H929 cells).

Binder | EC50 | Maximum MFI
PR002299 (bispecific antibody, human IgG1, lambda, L234A L235A, BCMAxCD3, Fab-Fc-VH(2) (structure 14); CD3 Fab of PR001848, two BCMA VH of PR000940, linker RT-GS_5-KL; IgG1 knob/hole, AAG) light: QAVVTQEPSLTVSPGGTVTLTCRSSTGAVTTSNYANWVQQKPGQAPRGLIGGTNKRAPWTPARFSGSLLGDKAALTLLGAQPEDEAEYFCALWYSNLWVFGGGTKLTVLGQPKAAPSVTLFPPSSEELQANKATLVCLISDFYPGAVTVAWKADSSPVKAGVETTTPSKQSNNKYAASSYLSLTPEQWKSHRSYSCQVTHEGSTVEKTVAPTECS heavy: EVQLLESGGGLVQPGGSLRLSCAASGFTFSTYAMNWVRQAPGKGLEWVSRIRSKYNNYATYYADSVKDRFTISRDDSKSTLYLQMNSLRAEDTAVYYCVRHGNFGNSYVSWFAYWGQGTLVTVSSASTKGPSVFPLAPSSKSTSGGTAALGCLVKDYFPEPVTVSWNSGALTSGVHTFPAVLQSSGLYSLSSVVTVPSSSLGTQTYICNVNHKPSNTKVDKKVEPKSCDKTHTCPPCPAPEAAGGPSVFLFPPKPKDTLMISRTPEVTCVVVDVSHEDPEVKFNWYVDGVEVHNAKTKPREEQYNSTYRVVSVLTVLHQDWLNGKEYKCKVSNKALGAPIEKTISKAKGQPREPQVYTLPPCREEMTKNQVSLWCLVKGFYPSDIAVEWESNGQPENNYKTTPPVLDSDGSFFLYSKLTVDKSRWQQGNVFSCSVMHEALHNHYTQKSLSLSPGK EVQLLESGGGLVQPGGSLRLSCAASGFTFSSYAMIWVRQAPGKGLEWVSGISESGGSTYYADSVKGRFTISRDNSKNTLYLQMNSLRAEDTAVYFCVKDLDDILTGYYKDYWGQGTLVTVSSRTGGGGSKLEVQLLESGGGLVQPGGSLRLSCAASGFTFSSYAMIWVRQAPGKGLEWVSGISESGGSTYYADSVKGRFTISRDNSKNTLYLQMNSLRAEDTAVYFCVKDLDDILTGYYKDYWGQGTLVTVSSASEPKSSDKTHTCPPCPAPEAAGGPSVFLFPPKPKDTLMISRTPEVTCVVVDVSHEDPEVKFNWYVDGVEVHNAKTKPREEQYNSTYRVVSVLTVLHQDWLNGKEYKCKVSNKALGAPIEKTISKAKGQPREPQVCTLPPSREEMTKNQVSLSCAVKGFYPSDIAVEWESNGQPENNYKTTPPVLDSDGSFFLVSKLTVDKSRWQQGNVFSCSVMHEALHNHYTQKSLSLSPGK | – | 32800
PR002300 (bispecific antibody, human IgG1, lambda, L234A L235A, BCMAxCD3, Fab-Fc-VH(2) (structure 14); CD3 Fab of PR001848, two BCMA VH of PR000940, linker RT-GS_15-KL; IgG1 knob/hole, AAG) light: QAVVTQEPSLTVSPGGTVTLTCRSSTGAVTTSNYANWVQQKPGQAPRGLIGGTNKRAPWTPARFSGSLLGDKAALTLLGAQPEDEAEYFCALWYSNLWVFGGGTKLTVLGQPKAAPSVTLFPPSSEELQANKATLVCLISDFYPGAVTVAWKADSSPVKAGVETTTPSKQSNNKYAASSYLSLTPEQWKSHRSYSCQVTHEGSTVEKTVAPTECS heavy: EVQLLESGGGLVQPGGSLRLSCAASGFTFSTYAMNWVRQAPGKGLEWVSRIRSKYNNYATYYADSVKDRFTISRDDSKSTLYLQMNSLRAEDTAVYYCVRHGNFGNSYVSWFAYWGQGTLVTVSSASTKGPSVFPLAPSSKSTSGGTAALGCLVKDYFPEPVTVSWNSGALTSGVHTFPAVLQSSGLYSLSSVVTVPSSSLGTQTYICNVNHKPSNTKVDKKVEPKSCDKTHTCPPCPAPEAAGGPSVFLFPPKPKDTLMISRTPEVTCVVVDVSHEDPEVKFNWYVDGVEVHNAKTKPREEQYNSTYRVVSVLTVLHQDWLNGKEYKCKVSNKALGAPIEKTISKAKGQPREPQVYTLPPCREEMTKNQVSLWCLVKGFYPSDIAVEWESNGQPENNYKTTPPVLDSDGSFFLYSKLTVDKSRWQQGNVFSCSVMHEALHNHYTQKSLSLSPGK EVQLLESGGGLVQPGGSLRLSCAASGFTFSSYAMIWVRQAPGKGLEWVSGISESGGSTYYADSVKGRFTISRDNSKNTLYLQMNSLRAEDTAVYFCVKDLDDILTGYYKDYWGQGTLVTVSSRTGGGGSGGGGSGGGGSKLEVQLLESGGGLVQPGGSLRLSCAASGFTFSSYAMIWVRQAPGKGLEWVSGISESGGSTYYADSVKGRFTISRDNSKNTLYLQMNSLRAEDTAVYFCVKDLDDILTGYYKDYWGQGTLVTVSSASEPKSSDKTHTCPPCPAPEAAGGPSVFLFPPKPKDTLMISRTPEVTCVVVDVSHEDPEVKFNWYVDGVEVHNAKTKPREEQYNSTYRVVSVLTVLHQDWLNGKEYKCKVSNKALGAPIEKTISKAKGQPREPQVCTLPPSREEMTKNQVSLSCAVKGFYPSDIAVEWESNGQPENNYKTTPPVLDSDGSFFLVSKLTVDKSRWQQGNVFSCSVMHEALHNHYTQKSLSLSPGK | – | 44200

Results, then the binder that gave them:

EC50 | Maximum MFI | Binder
5.6 nM | 8660 | PR003880 (bispecific antibody, human IgG1, lambda, L234A L235A, BCMAxCD3, Fab-Fc-VH (structure 11); CD3 Fab of PR003886, BCMA VH of PR004560; IgG1 knob/hole, LALA) light: QAVVTQEPSLTVSPGGTVTLTCRSSTGAVTTSNYANWVQQKPGQAPRGLIGGTNKRAPWTPARFSGSLLGDKAALTLLGAQPEDEAEYFCALWYSNLWVFGGGTKLTVLGQPKAAPSVTLFPPSSEELQANKATLVCLISDFYPGAVTVAWKADSSPVKAGVETTTPSKQSNNKYAASSYLSLTPEQWKSHRSYSCQVTHEGSTVEKTVAPTECS heavy: not shown EVQLVETGGGLIQPGGSLRLSCAASGFTVSDAYMTWVRQAPGKGLEWVSVIFSGGNTYVSDSVKGRFTISRDNAKNTLYLQMNSLRAEDTALYYCARRNYDQTRGTDVFDIWGQGTMVTVSSASEPKSSDKTHTCPPCPAPEAAGGPSVFLFPPKPKDTLMISRTPEVTCVVVDVSHEDPEVKFNWYVDGVEVHNAKTKPREEQYNSTYRVVSVLTVLHQDWLNGKEYKCKVSNKALPAPIEKTISKAKGQPREPQVCTLPPSREEMTKNQVSLSCAVKGFYPSDIAVEWESNGQPENNYKTTPPVLDSDGSFFLVSKLTVDKSRWQQGNVFSCSVMHEALHNHYTQKSLSLSPGK
1.8 nM | 11100 | PR003882 (bispecific antibody, human IgG1, lambda, L234A L235A, BCMAxCD3, Fab-Fc-VH (structure 11); CD3 Fab of PR003886, BCMA VH of PR004562; IgG1 knob/hole, LALA) light: QAVVTQEPSLTVSPGGTVTLTCRSSTGAVTTSNYANWVQQKPGQAPRGLIGGTNKRAPWTPARFSGSLLGDKAALTLLGAQPEDEAEYFCALWYSNLWVFGGGTKLTVLGQPKAAPSVTLFPPSSEELQANKATLVCLISDFYPGAVTVAWKADSSPVKAGVETTTPSKQSNNKYAASSYLSLTPEQWKSHRSYSCQVTHEGSTVEKTVAPTECS heavy: not shown EVQLVETGGGLIQPGGSLRLSCAASGFTVSDSYMTWVRQAPGKGLEWVSVIFSGGKTYYSDSVKGRFTISRDNAKNTLYLQMNSLRAEDTALYYCARRNYDQTLGTDVFDIWGQGTMVTVSSASEPKSSDKTHTCPPCPAPEAAGGPSVFLFPPKPKDTLMISRTPEVTCVVVDVSHEDPEVKFNWYVDGVEVHNAKTKPREEQYNSTYRVVSVLTVLHQDWLNGKEYKCKVSNKALPAPIEKTISKAKGQPREPQVCTLPPSREEMTKNQVSLSCAVKGFYPSDIAVEWESNGQPENNYKTTPPVLDSDGSFFLVSKLTVDKSRWQQGNVFSCSVMHEALHNHYTQKSLSLSPGK
